Measurements published in patent US20250188151A1, “C-JUN ANTAGONIST PEPTIDES” (The University of Bath, priority 2022, published 2025).
Bridge positions count the residues as written; N and C are the ends. Ends that are not written are not given here. Peptide text beside a SMILES is read from it.

What was measured:
cJun bZIP [1] = target: cJun bZIP (Homo sapiens, UniProt P05412, S292Y); experiment: CD spectra and thermal denaturation of peptide/cJun heterodimers; details: peptide (5 μM)/c-Jun (5 μM) heterodimer; Table 6
Description: Circular Dichroism (CD): An Applied Photophysics Chirascan was used for CD measurements, with a 200 μL sample in a 1 mm path length CD cell. Protein/DNA samples were suspended in 150 mM potassium phosphate, 150 mM potassium fluoride and 5 mM TCEP at pH 7.4 and were equilibrated for 30 minutes before measurement. […] These scans were averaged and converted to molar residue ellipticities (MRE). Thermal denaturation experiments were performed by measuring the ellipticity at 222 nm over a 1 to 90° C. gradient at 1° C. increments. Post-melt scans at 20° C. confirmed the transitions were reversible as they overlaid within 10% of the pre-melt scan.
Circular Dichroism (CD): An Applied Photophysics Chirascan was used for CD measurements, with a 200 μL sample in a 1 mm path length CD cell. Protein/DNA samples were suspended in 150 mM potassium phosphate, 150 mM potassium fluoride and 5 mM TCEP at pH 7.4 and were equilibrated for 30minutes before measurement. […] Thermal denaturation experiments were performed by measuring the ellipticity at 222 nm over a 1 to 90° C. gradient at 1° C. increments. Post-melt scans at 20° C. confirmed the transitions were reversible as they overlaid within 10% of the pre-melt scan.
Peptide helicity was determined by quantifying the CD signal at 222 nm of peptide only samples. Thermal denaturation experiments were then used to determine the Tm of peptide-c-Jun heterodimers, which was used as an approximate measure of target engagement. […] The same 60 amino acid c-Jun bZIP construct was used for all experiments, regardless of antagonist peptide length.

cJun/TRE DNA interaction = target: T1, cJun/TRE DNA interaction (Homo sapiens, UniProt P05412, S292Y); experiment: CD cJun/TRE DNA antagonism (shift of TRE DNA peak at ~281 nm, Hill fit); assay type: biochemical; details: ratio of CD IC50
T1 construct: The same 60 amino acid c-Jun bZIP construct was used for all experiments; His-SUMO (N, cleaved yes); made in house; host or cells: E. coli
Text: Briefly, in TBS the coding region for the essential gene dihydrofolate reductase (DHFR) is mutated to incorporate TRE sites so that introduction of c-Jun to this gene inside E. coli produces a transcriptional block that abrogates cell proliferation. The TRE site-bound c-Jun molecules sterically prevent RNA polymerase transcribing the essential gene and this can only be restored upon introduction of an effective c-Jun/TRE antagonist. Consequently, the survival of a particular cell is controlled by the ability of a peptide library member to remove the c-Jun transcriptional block and therefore to restore DHFR activity. TBS thus facilitates the identification of therapeutically valuable sequences. Further details for the TBS assay are provided in WO2020128015, which is incorporated herein by reference in its entirety. […] The TRE-DNA construct produces a positive CD peak at ˜281 nm, which decreases in intensity upon c-Jun binding. […] This method allows for the calculation of an IC50 value by fitting the titration data to a Hill equation. In some embodiments, the c-Jun antagonist is able to inhibit the DNA-binding activity of c-Jun within 10-fold of the ability of HingeW to inhibit the DNA-binding activity of c-Jun (e.g. the c-Jun antagonist has a reduced ability to inhibit the DNA-binding activity of c-Jun that is within 10-fold of that determined for HingeW). In some embodiments, the c-Jun antagonist is able to inhibit the DNA-binding activity of c-Jun within 9-fold, preferably within 8-fold, more preferably within 7-fold, even more preferably within 6-fold, yet more preferably within 5-fold of the ability of HingeW to inhibit the DNA-binding activity of c-Jun. The ability of the c-Jun antagonist and HingeW to inhibit the DNA-binding activity may be measured using the TBS assay (e.g. by quantifying the number of colonies) or by determining the IC50 using a circular dichroism assay described herein. Optionally, the c-Jun antagonist may have this activity when cross-linked. Methods for cross-linking peptides are described in more detail below.
Therefore, the acidic domain was the initial focus for optimisation. 1 was iteratively truncated (2-6) to investigate the effect on c-Jun binding and c-Jun/TRE DNA antagonism. […] Thermal denaturation experiments were then used to determine the Tm of peptide-c-Jun heterodimers, which was used as an approximate measure of target engagement. CD was also used to investigate the ability of the functional activity of peptides in antagonising the c-Jun/TRE DNA interaction. The TRE-DNA construct used produces a positive CD peak at ˜281 nm (no c-Jun absorbance at this wavelength allows for direct measurement of DNA upon binding) which decreases in intensity upon c-Jun binding. […] This allowed for the calculation of an IC50 value by fitting the titration data to a Hill equation. […] The same 60 amino acid c-Jun bZIP construct was used for all experiments, regardless of antagonist peptide length.

cJun = cJun (Homo sapiens, UniProt P05412, S292Y); experiment: Isothermal titration calorimetry, Example 2 (PEAQ-ITC); assay type: binding; design: The same 60 amino acid c-Jun bZIP construct was used for all experiments; His-SUMO (N, cleaved yes); made in house; host or cells: E. coli; details: ITC
Description: 2 μL injections of antagonist peptide at 25-200 μM were injected into the cell containing cJun at 2.5-20 μM. Software was used to record and analyse the heat change upon addition. Control experiments involved the injection of the antagonist peptide sample into the cell containing ITC buffer alone to determine the heat of dilution which was subtracted. The resulting binding data were fit to a one site binding model to extract the enthalpy change of binding (ΔH) and the equilibrium binding constant (KD), from which the free energy change of binding (ΔG) and the entropy change of binding (ΔS) was calculated (Wiseman et al., 1989). Thermodynamic parameters are presented as an average of two independent experiments with errors given as one standard deviation.

cJun bZIP [2] = target: T2, cJun bZIP (human, UniProt P05412 252-308, limits assumed); experiment: cell-based or functional assay
T2 chain: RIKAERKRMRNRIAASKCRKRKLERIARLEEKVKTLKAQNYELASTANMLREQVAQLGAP

cJun bZIP [3] = target: T2, cJun bZIP; experiment: CD thermal denaturation, peptide 5 µM and c-Jun 5 µM
cJun bZIP [4] = target: T2, cJun bZIP; experiment: cell-based or functional assay
cJun bZIP [5] = target: T2, cJun bZIP; experiment: ITC (PEAQ-ITC), peptide injected into cJun, one site model

## Ac-LVVEEDVLEEEIEQLEERNYALRKEIEDLQKQLEKL-NH2 [Peptide 5]
cJun bZIP [1]
  Tm (° C.): 62.8 ± 1.0 °C
cJun/TRE DNA interaction
  fold better antagonism than 6: 1.7 fold
  fold reduction in antagonism relative to 3: 2.3 fold
  fold reduction in antagonism relative to 4: 1.7 fold
  fold reduction in cJun/TRE antagonism relative to 1: 5.8 fold

## Ac-LARENEELEKEAEELVVEEDVLEEEIEQLEERNYALRKEIEDLQKQLEKL-NH2 [Peptide 2]
cJun bZIP [1]
  Tm (° C.): 68.5 ± 1.1 °C
cJun/TRE DNA interaction
  fold more effective antagonism than 10: 4 fold
  fold reduction in cJun/TRE antagonism relative to 1: 1.2 fold

## Ac-LEKEAEELVVEEDVLEEEIEQLEERNYALRKEIEDLQKQLEKL-NH2 [Peptide 3]
cJun bZIP [1]
  Tm (° C.): 67.9 ± 0.9 °C
cJun/TRE DNA interaction
  fold reduction in antagonism relative to 2: 2 fold

## Ac-EDVLEEEIEQLEERNYALRKEIEDLQKQLEKLGAP-NH2 [Peptide 6]
cJun bZIP [1]
  Tm (° C.): 55.1 ± 1.1 °C
cJun/TRE DNA interaction
  fold reduction in antagonism relative to 5: 1.7 fold
  fold reduction in cJun/TRE antagonism relative to 1: 9.7 fold

## CC[C@H](C)[C@H](NC(=O)[C@H](CCC(=O)O)NC(=O)[C@H](CCCCN)NC(=O)[C@H](CCCNC(=N)N)NC(=O)[C@H](CC(C)C)NC(=O)[C@H](C)NC(=O)[C@H](Cc1ccc(O)cc1)NC(=O)[C@H](CC(N)=O)NC(=O)[C@H](CCCNC(=N)N)NC(=O)[C@H](CCC(=O)O)NC(=O)[C@H](CCC(=O)O)NC(=O)[C@H](CC(C)C)NC(=O)[C@H](CCC(N)=O)NC(=O)[C@H](CCC(=O)O)NC(=O)[C@@H](NC(=O)[C@H](CCC(=O)O)NC(=O)[C@H](CCC(=O)O)NC(=O)[C@H](CCC(=O)O)NC(=O)[C@H](CC(C)C)NC(=O)[C@@H](NC(=O)[C@H](CC(=O)O)NC(=O)[C@H](CCC(=O)O)NC(=O)[C@H](CCC(=O)O)NC(=O)[C@@H](NC(=O)[C@@H](NC(=O)[C@H](CC(C)C)NC(C)=O)C(C)C)C(C)C)C(C)C)[C@@H](C)CC)C(=O)N[C@@H](CCC(=O)O)C(=O)N[C@@H](CC(=O)O)C(=O)N[C@@H](CC(C)C)C(=O)N[C@@H](CCC(N)=O)C(=O)N[C@H]1CCCCNC(=O)C[C@@H](C(=O)N[C@@H](CC(C)C)C(N)=O)NC(=O)[C@H](CCC(=O)O)NC(=O)[C@H](CC(C)C)NC(=O)[C@H](CCC(N)=O)NC1=O [Peptide 10] (Ac-LVVEEDVLEEEIEQLEERNYALRKEIEDLQKQLEDL-NH2; lactam 31-35)
cJun bZIP [1]
  Tm (° C.): 68.3 ± 0.9 °C
cJun/TRE DNA interaction
  fold increase in antagonism relative to the linear counterpart 5: 1.9 fold

## Ac-EAEELVVEEDVLEEEIEQLEERNYALRKEIEDLQKQLEKL-NH2 [Peptide 4]
cJun bZIP [1]
  Tm (° C.): 64.1 ± 1.5 °C
cJun
  ΔG: -9.68 ± 0.115 kcal/mol
  ΔH: -45.399 ± 1.93 kcal/mol
  −TΔS: 35.73 ± 1.94 kcal/mol
cJun; c-Jun-peptide interaction
  Stoichiometry, n: 0.91 ± 0.04

B1: HingeW variant peptide 8 (peptide)
peptide: Ac-LVVEEDVLEEEIEQLEEKNKALKDEIEDLQKQLEKLY-NH2
modifications: lactam 20-24 (inferred); also: table prints a different, shorter sequence for 7/8
notes: See peptide 7; also called cyclised form of 7/8
cJun bZIP [2]
  IC50 CD: 73.5 µM
cJun bZIP [3]
  Tm (° C.) of peptide-c-Jun heterodimer: 67.2 ° C.
cJun bZIP [4]
  fold increase in antagonism relative to 5: 1.8 fold

B2: HingeW peptide variant 2 (peptide)
peptide: Ac-LARENEELEKEAEELVVEEDVLEEEIEQLEERNYALRKEIEDLQKQLEKL-NH2
notes: Synthetic, NΔ10 CΔ3; also called peptide 2
cJun bZIP [2]
  IC50 CD: 16.6 µM
cJun bZIP [3]
  Tm (° C.) of peptide-c-Jun heterodimer: 68.5 ° C.
cJun bZIP [4]
  fold decrease in antagonism, 1 to 2: 1.2 fold
  fold more effective antagonism than 10: 4 fold

B3: Peptide 5 (peptide)
peptide: Ac-LVVEEDVLEEEIEQLEERNYALRKEIEDLQKQLEKL-NH2
notes: Synthetic, NΔ24 CΔ3
cJun bZIP [2]
  IC50 CD: 78.2 µM
cJun bZIP [3]
  Tm (° C.) of peptide-c-Jun heterodimer: 62.8 ° C.
cJun bZIP [4]
  fold better antagonism than 6: 1.7 fold
  fold decrease in antagonism, 3 to 5: 2.3 fold
  fold lower antagonism than 1: 5.8 fold
  fold reduction in antagonism, 4 to 5: 1.7 fold

B4: HingeW variant peptide 11 (peptide)
peptide: Ac-EAEELVVEEDVLEEEIEQLEERNYALRKEIEDLQKQ-NH2
notes: Synthetic, NΔ20 CΔ7
cJun bZIP [2]
  IC50 CD: 82.1 µM
cJun bZIP [3]
  Tm (° C.) of peptide-c-Jun heterodimer: 57.1 ° C.
cJun bZIP [5]
  -TΔS: -2.14 kcal/mol
  Kd: 1.1 µM
  Stoichiometry, n: 0.95
  ΔG: -8.15 kcal/mol
  ΔH: -5.99 kcal/mol
cJun bZIP [4]
  fold reduction in antagonism, 4 to 11: 1.8 fold

B5: HingeW variant peptide 27 (peptide)
peptide: Ac-EAEELVVEEDVLEEEIEQLEEKNKALKDEIEDLY-NH2
modifications: lactam 24-28 (inferred)
notes: Synthetic, NΔ20 CΔ10; also called cyclised form of 26/27
cJun bZIP [2]
  IC50 CD: 118 µM
cJun bZIP [3]
  Tm (° C.) of peptide-c-Jun heterodimer: 52.5 ° C.
cJun bZIP [4]
  fold reduction in antagonism relative to 1: 8.8 fold

B6: Peptide 6 (peptide)
peptide: EDVLEEEIEQLEERNYALRKEIEDLQKQLEKLGAP-NH2
notes: NΔ28; also called LZ-only portion of the HingeW molecule
cJun bZIP [2]
  IC50 CD: 130 µM
cJun bZIP [3]
  Tm (° C.) of peptide-c-Jun heterodimer: 55.1 ° C.
cJun bZIP [4]
  fold decrease in antagonism, 5 to 6: 1.7 fold
  fold decrease in cJun/TRE DNA antagonism, 1 to 6: 9.7 fold

B7: HingeW variant peptide 29 (peptide)
peptide: Ac-EAEELVVEEDVLEEEIEQLEERNYALRKEIEDLQ-NH2
modifications: lactam 28-32 (inferred)
notes: Synthetic, NΔ20 CΔ9; also called cyclised form of 28/29
cJun bZIP [2]
  IC50 CD: 140 µM
cJun bZIP [3]
  Tm (° C.) of peptide-c-Jun heterodimer: 57.2 ° C.
cJun bZIP [4]
  fold reduction in antagonism relative to 1: 10.4 fold

B8: HingeW variant peptide 10 (peptide)
peptide: Ac-LVVEEDVLEEEIEQLEERNYALRKEIEDLQKQLEDL-NH2
modifications: lactam (positions not given here); also: one i to i+4 K-to-D lactam, places not given here (K24/D28 or K31/D35)
notes: Synthetic, NΔ24 CΔ3; also called cyclised form of 9/10
cJun bZIP [2]
  IC50 CD: 69 µM
cJun bZIP [3]
  Tm (° C.) of peptide-c-Jun heterodimer: 68.3 ° C.
cJun bZIP [4]
  fold increase in antagonism relative to 5: 1.9 fold

B9: HingeW peptide variant 3 (peptide)
peptide: Ac-LEKEAEELVVEEDVLEEEIEQLEERNYALRKEIEDLQKQLEKL-NH2
notes: Synthetic, NΔ17 CΔ3; also called peptide 3
cJun bZIP [2]
  IC50 CD: 33.7 µM
cJun bZIP [3]
  Tm (° C.) of peptide-c-Jun heterodimer: 67.9 ° C.
cJun bZIP [4]
  fold decrease in antagonism, 2 to 3: 2 fold

B10: HingeW variant peptide 25 (peptide)
peptide: Ac-EAEELVVEEDVLEEEIEQLEERNYALRKEIEDL-NH2
notes: Synthetic, NΔ20 CΔ10
cJun bZIP [2]
  IC50 CD: 1210 µM
cJun bZIP [3]
  Tm (° C.) of peptide-c-Jun heterodimer: 44.8 ° C.
cJun bZIP [4]
  fold reduction in antagonism compared to 4: 26.7 fold
  fold reduction in antagonism compared to 11: 14.8 fold
